Data taken from patent WO2021221136A1 (dated 2021).

Target: T1, SARS-CoV-2 S1 subunit-Fc (Fc-tagged S1 protein, The Native Antigen Company) (SARS-CoV-2, UniProt P0DTC2 14-674)
T1 construct: domain: S1 subunit
Assay: BLI (BLItz), His-tagged CoVHH1 on Ni-NTA sensor, S1-Fc 0-693.1 nM in solution, global fitting

B1: His-tagged CoVHH1 (VHH)
VHH: AEVQLVESGGGQVETGGSLRLSCQASGSTFSDYVMAWFRQRPGKEREFVATISRNGGTTTYGSSVKGRFTISRDNAKSTVYLQMNSLKPEDTAVYYCYAVGGDGDSWGQGTQVTVSSEPKTPKPQSHHHHHH
notes: also called CoVHH1-His; His-tagged VHH
For B1, the Kd was 7.13 nM, the koff was 0.000114 s⁻¹ and the kon was 16000 M⁻¹ s⁻¹.
